According to patent US20200010836A1, “Regulation of Gene Expression by Aptamer-Mediated Accessibility of Polyadenylation Signals” (MEIRAGTX, UK II Limited, priority 2017, published 2020):

Key:
Format in all cases: cell-based
[1] = system: EGFP expression; experiment: GFP fluorescence of HEK 293 cells transfected with pEGFP riboswitch constructs, treated with guanine; settings: 500 μM guanine vs NaOH solvent control
Procedure: (§1) Transfection and aptamer ligand treatment: 3.5×10^4 HEK 293 cells were plated in a 96-well flat bottom plate the day before transfection. Plasmid DNA (500 ng) was added to a tube or a 96-well U-bottom plate. Separately, TransIT-293 reagent (Minis; 1.4 μl) was added to 50 μl opti-mem I media (Life Technologies), and allowed to sit for 5 minutes at room temperature (“RT”). Then, 50 μl of this diluted transfection reagent was added to the DNA, mixed, and incubated at RT for 20 min. Finally, 7 μl of this solution was added to a well of cells in a 96-well plate. Four hours after transfection, the media was aspirated, and new media was added with (i) DMSO (0.5%) or 500 μM guanosine; or (ii) NaOH (2 mM) as solvent control or 500 μM guanine. The induction fold was expressed as the quotient of luciferase activity obtained in the presence of aptamer ligand divided by the value obtained in the absence of the aptamer ligand.
Transfection and measurement of GFP fluorescence: 3.5×10^4 HEK 293 cells were plated in 96-well flat bottom plate the day before transfection. […] GFP fluorescence intensity was measured by Tecan plate reader, using Excitation wavelength at 484 nm, Emission wavelength at 510 nm and Excitation bandwidth at 5 nm. The GFP fluorescence intensity was expressed as the value generated by GFP constructs subtracted by the value generated by cells without transfection.

[2] = system: luciferase expression; experiment: Firefly luciferase assay of HEK 293 cells transfected with riboswitch constructs, treated with guanosine or guanine; settings: absence of guanine treatment
Procedure: as §1
(§2) Firefly luciferase assay of cultured cells: Twenty-four hours after media change, plates were removed from the incubator, and equilibrated to RT for several minutes on a lab bench, then aspirated. Glo-lysis buffer (Promega, […]) was added, and the plates allowed to remain at RT for at least 5 minutes. Then, the well contents were mixed by 50 μL trituration, and 20 μL of each sample was mixed with 20 μL of bright-glo reagent (Promega) that had been diluted to 10% in glo-lysis buffer. 96 wells were spaced on an opaque white 384-well plate. Following a 5-min incubation at RT, luminescence was measured using Tecan machine with 500 mSec read time. The luciferase activity was expressed as mean relative light unit (RLU)±S.D.

[3] = system: luciferase expression; experiment: Firefly luciferase assay of HEK 293 cells transfected with adenine aptamer construct, treated with adenine
Procedure: as §1, §2
Four hours after transfection, the media was aspirated, and new media with NaOH (1 mM) or 1 mM adenine (Calbiochem) was added. The induction fold was expressed as the quotient of luciferase activity obtained in the presence of aptamer ligand divided by the value obtained in the absence of the aptamer ligand.

Molecule | fold increase in GFP expression on guanine treatment [1] [fold] | basal level luciferase expression, % of the pFLuc control vector [2] [%] | luciferase expression in the presence of adenine, % of the control pFLuc construct in the presence of adenine ([3]; 1 mM adenine) | fold increase in luciferase expression on adenine treatment ([3]; 1 mM adenine vs NaOH solvent control) [fold] | luciferase level in the absence of adenine, % of the control pFLuc construct ([3]; absence of adenine treatment)
ATA_Gua_4: SEQ ID NO: 4; xpt-guanine aptamer linked to 14 bp stem-loop embedding AATAAA; also used in pEGFP vector (nucleic acid) DNA: AAGGCCAAGAAGGGCGGAAAGATCGCCGTGTAAGCCATACCACATTTGTAGAGGTTTTACTTGCTTTAAAAAACCTCCCACACCTCCCCCTGAACCTGAAACATAAAATGAATGCAATTGTTGTTGTTAACTTGTTTATTGCAGCTTATAATGGTTACAAATAAAGCAATAGCATCACAAATTTTAAAGCAATAATCGCGTGGATATGGCACGCAAGTTTCTACCGGGCACCGTAAATGTCCGACTTGCTTTATTTGTGCGAAAGCACAAATAAAGCATTTTTTTCACTGCATTCTAGTTGTGGTTTGTCCAAACTCATCAATGTATCTTAACGCGT | 1.6 | 16 |  |  | 
ATA_Gua_2: SEQ ID NO: 2; xpt-guanine aptamer linked to 10 bp stem-loop embedding AATAAA; also used in pEGFP vector (nucleic acid) DNA: AAGGCCAAGAAGGGCGGAAAGATCGCCGTGTAAGCCATACCACATTTGTAGAGGTTTTACTTGCTTTAAAAAACCTCCCACACCTCCCCCTGAACCTGAAACATAAAATGAATGCAATTGTTGTTGTTAACTTGTTTATTGCAGCTTATAATGGTTACAAATAAAGCAATAGCATCACAAATTTCACATAAAGCATAATCGCGTGGATATGGCACGCAAGTTTCTACCGGGCACCGTAAATGTCCGACTGCTTTATTTCGAAAGAAATAAAGCATTTTTTTCACTGCATTCTAGTTGTGGTTTGTCCAAACTCATCAATGTATCTTAACGCGT | 1.5 |  |  |  | 
ATA_Ydhl: SEQ ID NO: 17; adenine aptamer ydhl-A linked to 9 bp TTCG stem-loop embedding AATAAA, P1 stem 10 bp (nucleic acid) DNA: AAGGCCAAGAAGGGCGGAAAGATCGCCGTGTAAGCCATACCACATTTGTAGAGGTTTTACTTGCTTTAAAAAACCTCCCACACCTCCCCCTGAACCTGAAACATAAAATGAATGCAATTGTTGTTGTTAACTTGTTTATTGCAGCTTATAATGGTTACAAATAAAGCAATAGCATCACAAATTTCAATAAAGGTATAACCTCAATAATATGGTTTGAGGGTGTCTACCAGGAACCGTAAAATCCTGATTACCTTTATTTCTTCGGAAATAAAGCATTTTTTTCACTGCATTCTAGTTGTGGTTTGTCCAAACTCATCAATGTATCTTAACGCGT |  |  | approximately 82% | 4.0 | approximately 52%
